Experimental data: patent publication US20200308299A1 (NATIONAL UNIVERSITY CORPORATION KOCHI UNIVERSITY, published 2020)

T1: mouse Glypican-1 expressed on LLC-mGPC1-16 cells (mouse, UniProt Q9QZF2 24-529)
T1 sequence: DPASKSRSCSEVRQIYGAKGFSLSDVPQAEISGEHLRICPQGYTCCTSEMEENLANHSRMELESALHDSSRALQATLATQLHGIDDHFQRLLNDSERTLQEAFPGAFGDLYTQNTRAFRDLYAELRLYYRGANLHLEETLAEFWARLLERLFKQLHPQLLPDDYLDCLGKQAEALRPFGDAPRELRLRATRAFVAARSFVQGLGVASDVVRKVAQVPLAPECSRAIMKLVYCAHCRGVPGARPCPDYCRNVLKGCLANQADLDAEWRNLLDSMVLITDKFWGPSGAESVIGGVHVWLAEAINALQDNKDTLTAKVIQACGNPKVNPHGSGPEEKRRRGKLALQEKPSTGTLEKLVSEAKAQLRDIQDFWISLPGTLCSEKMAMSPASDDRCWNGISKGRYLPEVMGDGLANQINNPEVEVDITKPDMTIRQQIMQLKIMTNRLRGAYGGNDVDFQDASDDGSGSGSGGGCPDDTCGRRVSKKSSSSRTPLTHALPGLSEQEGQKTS

T2: recombinant human Glypican-1 protein (R&D Systems, CF, 4519-GP-050) (human, UniProt P35052 24-530)
T2 construct: Bought protein; also called recombinant human GPC1
T2 sequence: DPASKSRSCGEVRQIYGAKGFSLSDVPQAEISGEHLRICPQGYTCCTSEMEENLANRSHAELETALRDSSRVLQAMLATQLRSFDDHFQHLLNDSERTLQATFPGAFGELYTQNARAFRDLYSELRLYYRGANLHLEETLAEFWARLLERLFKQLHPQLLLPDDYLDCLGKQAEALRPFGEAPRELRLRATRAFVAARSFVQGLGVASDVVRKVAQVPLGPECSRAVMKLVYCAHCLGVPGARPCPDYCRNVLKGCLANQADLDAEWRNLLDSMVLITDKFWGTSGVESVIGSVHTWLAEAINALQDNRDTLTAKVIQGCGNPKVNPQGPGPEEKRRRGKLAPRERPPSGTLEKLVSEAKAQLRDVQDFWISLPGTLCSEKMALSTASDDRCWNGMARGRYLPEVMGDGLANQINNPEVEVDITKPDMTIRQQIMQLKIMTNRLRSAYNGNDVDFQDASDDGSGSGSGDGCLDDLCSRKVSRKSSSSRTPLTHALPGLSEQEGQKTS

T3: human Glypican-1 on the surface of human cancer cell strains (TE8, TE14 and others) (human, UniProt P35052 24-530)
T3 construct: Endogenous GPC1 of the cell strains; also called GPC1; GPC-1
T3 sequence: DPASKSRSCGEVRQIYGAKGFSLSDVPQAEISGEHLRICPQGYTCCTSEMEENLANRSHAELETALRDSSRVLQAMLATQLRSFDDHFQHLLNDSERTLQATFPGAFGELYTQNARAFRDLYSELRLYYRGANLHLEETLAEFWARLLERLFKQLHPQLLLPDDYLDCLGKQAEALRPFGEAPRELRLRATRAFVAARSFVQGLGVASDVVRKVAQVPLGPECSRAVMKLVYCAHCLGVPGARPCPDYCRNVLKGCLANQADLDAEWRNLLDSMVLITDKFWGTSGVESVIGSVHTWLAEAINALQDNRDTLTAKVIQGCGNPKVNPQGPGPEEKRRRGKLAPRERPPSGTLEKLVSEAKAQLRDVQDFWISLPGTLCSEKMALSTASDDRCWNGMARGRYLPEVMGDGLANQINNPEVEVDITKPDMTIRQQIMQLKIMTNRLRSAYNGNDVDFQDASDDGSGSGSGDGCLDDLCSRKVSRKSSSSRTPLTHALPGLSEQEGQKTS

T4: human Glypican-1 (human, UniProt P35052 24-530, limits assumed)
T4 construct: also called human GPC1
T4 sequence: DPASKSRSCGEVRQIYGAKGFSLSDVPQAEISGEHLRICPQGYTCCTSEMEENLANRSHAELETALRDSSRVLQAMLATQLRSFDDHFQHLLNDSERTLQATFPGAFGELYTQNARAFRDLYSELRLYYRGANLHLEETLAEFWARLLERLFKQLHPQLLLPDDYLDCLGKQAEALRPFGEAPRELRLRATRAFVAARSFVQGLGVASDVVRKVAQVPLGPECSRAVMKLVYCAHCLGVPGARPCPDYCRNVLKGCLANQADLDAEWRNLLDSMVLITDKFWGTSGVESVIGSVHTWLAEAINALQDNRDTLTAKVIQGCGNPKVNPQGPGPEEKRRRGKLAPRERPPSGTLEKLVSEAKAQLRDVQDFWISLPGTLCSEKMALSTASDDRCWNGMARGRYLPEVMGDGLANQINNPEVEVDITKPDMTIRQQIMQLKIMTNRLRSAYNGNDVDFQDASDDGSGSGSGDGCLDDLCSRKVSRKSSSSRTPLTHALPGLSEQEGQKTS


Key:
[1] = biological target: T1, mouse Glypican-1 expressed on …; assay: cell-based or functional assay
[2] = biological target: T2, recombinant human Glypican-1 protein …; assay: ELISA on plate-coated recombinant human GPC1
[3] = biological target: T3, human Glypican-1 on the surface of …; assay: flow cytometry on TE8 cells, biotin-labelled 02b006 and streptavidin-PE
[4] = biological target: T4, human Glypican-1; assay: phage scFv panning, ELISA on immobilised human GPC1, cell-ELISA and flow cytometry on human GPC1 transformants and TE14 (Example 1)

Binder	effect of suppressing growth (CellTiter-Glo, 72 hours), LLC-mGPC1-16 against LLC-control-7 [1]	binding result [2]	binding result [3]	binding result [4]
GPC1-CL-MMAF (clone 01a033 conjugated to MC-vc-PAB-MMAF) (antibody, V domains shown, MC-vc-PAB-MMAF bound by maleimide to reduced inter-strand cysteines; DAR 4.1 (printed as 3.8 in paragraph 359), Antibody-drug conjugate of mouse IgG2a clone 01a033; also called 01a033 ADC; GPC1 ADC) VH: QVQLKQSGPELVKPGASVKISCKASGYSFTGYYMHWVKQSPEKSLEWIGEINPSTGDTTYNQKFKAKATLTVDKSSSTAYMQLKSLTSEDSAVYYCAREKRDDGVFAYWGQGTLVTVSS VL: DIVMSQSPKSMSMSVGERVALSCKASENVGTYVSWYQQKPEQSPKLLIYGASNRYTGVPDRFTGSGSATDFTLTISSVQAEDLADYYCGQSYSYPLTFGAGTKLELKR	17 fold	binds		
anti-Glypican-1 antibody clone K090-02b006 (antibody, mouse IgG2a, kappa, V domains shown, also called biotin-labeled 02b006; biotin-labeled anti-GPC1 antibody 02b006) VH: EVQLVESGGGLVKPGGSRKLSCAASGFTFSDYGMHWVRQAPEKGLEWVAYISSGSSTIYYADTVKGRFTISRDNAKNTLFLQMTSLRSEDTAIYYCVRHSYYNYDIGGYYAMDYWGQGTSVTVSS VL: DIVLTQSPSSLSASLGERVSLTCRASQEISGYLSWLQQKPDGTIKRLIYAASTLDSGVPKRFSGSRSGSDYSLTISSLESEDFADYYCLQYASYPLTFGAGTKLEIKR			binds	binds
